To fix the notation:
B1: LINE1-full (parent)
chain: UACGUAGGUGGUUUUCCCCUGAUAGUGCUAAGGGGGCCUGGAAGUUUGGACUGGGCAGAGCUCAACACAGCGUGGCAAAGUGGCUGUGGCUAGACUGCCUCUCUGGAUUCCUCGUCACUCAGCAGGGCAUCUCUGAGAGAAAUGCC

The variants in this data set derive from B1. Nature of the data set: self-cleavage, relative activity (ratio to wild type); higher = more cleavage; in vitro, sequencing; the parent is a self-cleaving ribozyme.
Consider A31C A141G, for which the self-cleavage came to 1.43.

Take A31U U115A: the self-cleavage worked out at 1.08.

U29C U87C: the self-cleavage is 0.41.

For U29C U87A, the self-cleavage was 0.16.

Turning to A30U G72A, the self-cleavage was found to be 1.24.

With A30G A94U, the self-cleavage worked out at 0.64.

Consider A30G A94G, for which the self-cleavage was determined as 0.34.

Regarding A31G C38U, the self-cleavage came out at 0.99.

As to G32A U39A, the self-cleavage turned out to be 1.66.

Regarding A31U U104C, the self-cleavage came out at 1.3.

For the variant A31G C118U, the self-cleavage was 1.73.

Take A30G U132C: the self-cleavage is 1.05.

Turning to A30U U73A, the self-cleavage came to 2.55.

On to A30U U73C, for which the self-cleavage is 1.8.

Consider A30C G122A, for which the self-cleavage was found to be 1.02.

With A30G U45C, the self-cleavage was found to be 1.38.

With A30G G114A, the self-cleavage stood at 0.92.

Consider A30G A121G, for which the self-cleavage stood at 0.52.

With A30G A121U, the self-cleavage stood at 0.84.

Regarding A30U C113U, the self-cleavage was determined as 0.88.

A31U U108C: the self-cleavage is 1.3.

In the case of A30G U115C, the self-cleavage was 1.12.

On to U29C U143C, for which the self-cleavage worked out at 1.75.

For U29C G105A, the self-cleavage is 1.13.

Consider A30G U85C, for which the self-cleavage is 0.45.

With A30U G114C, the self-cleavage is 1.25.

Regarding A30G C118U, the self-cleavage turned out to be 1.93.

As for A31G A107G, the self-cleavage came out at 1.09.

Turning to A30G G53A, the self-cleavage worked out at 0.94.

In the case of U29C U109A, the self-cleavage stood at 1.28.

In the case of A30U A121C, the self-cleavage is 0.55.

In the case of A30U A121G, the self-cleavage is 1.08.

For the variant G32A C84U, the self-cleavage stood at 0.21.

In the case of U29C U73A, the self-cleavage amounted to 1.59.

In the case of G32A U85C, the self-cleavage is 0.16.

In the case of G32A U85A, the self-cleavage was 0.14.

As for A31U A142G, the self-cleavage came to 0.78.

Take A30G U47A: the self-cleavage stood at 1.57.

A30G U47C: the self-cleavage is 1.09.

A30G C90U: the self-cleavage came out at 0.07.

On to A31U U119A, for which the self-cleavage amounted to 1.17.

With G32A U87A, the self-cleavage stood at 0.03.

Regarding A31U U73C, the self-cleavage turned out to be 1.51.

In the case of A30G G106U, the self-cleavage was found to be 0.83.

Take A31G G36A: the self-cleavage came to 0.99.

For the variant A31G G36C, the self-cleavage stood at 1.67.

For A30U G49U, the self-cleavage was 0.85.

On to A31G C131U, for which the self-cleavage worked out at 0.61.

A31G A57U: the self-cleavage was determined as 0.3.

In the case of A31G A57G, the self-cleavage worked out at 0.95.

Turning to G32A U96C, the self-cleavage is 0.13.

On to A31C A79G, for which the self-cleavage was 1.02.

U29G U87C: the self-cleavage was 0.19.

On to A31U U134C, for which the self-cleavage is 1.2.

For A31U U134A, the self-cleavage amounted to 0.9.

Regarding A30C C131G, the self-cleavage is 2.01.

As for A30C G58U, the self-cleavage stood at 0.09.

For the variant A30G G89C, the self-cleavage was found to be 0.07.

As to A30U A79G, the self-cleavage was 0.91.

Regarding U29C U91C, the self-cleavage was 1.38.

On to A31U A64U, for which the self-cleavage was determined as 0.42.

As to A30G A59U, the self-cleavage turned out to be 0.78.

Consider A30U A140G, for which the self-cleavage worked out at 1.76.

As to A30U A140U, the self-cleavage was 0.67.

Consider G32A, for which the self-cleavage worked out at 1.23.

In the case of U29C G144A, the self-cleavage amounted to 1.22.

As for A30G A43G, the self-cleavage worked out at 0.78.

As for A30U G74C, the self-cleavage was 1.27.

Turning to A31U C51G, the self-cleavage was determined as 1.4.

As for U29C U45A, the self-cleavage worked out at 0.

Take A30C A65G: the self-cleavage was found to be 0.08.

Regarding A31U U39A, the self-cleavage came out at 1.05.

On to A30G A136U, for which the self-cleavage came out at 0.55.

On to A31U U81C, for which the self-cleavage came to 0.75.

For A31G A92G, the self-cleavage came to 0.09.

On to A30U A69G, for which the self-cleavage turned out to be 0.4.

With A31U A78U, the self-cleavage is 1.57.

Consider A31U A78G, for which the self-cleavage is 0.94.

As to U29C U46C, the self-cleavage was found to be 1.36.

For the variant A30U A67U, the self-cleavage amounted to 0.1.

As for U29C U130A, the self-cleavage was determined as 1.26.

On to U29C U130C, for which the self-cleavage was 1.52.

With A30G U81A, the self-cleavage was 1.7.

Take A30G U81C: the self-cleavage was 1.33.

Consider A31G A117C, for which the self-cleavage was 2.3.

As to A30U C38A, the self-cleavage turned out to be 0.35.

As to A31U C101U, the self-cleavage turned out to be 0.58.

As to A30U A142G, the self-cleavage worked out at 1.28.

For A30G C116U, the self-cleavage worked out at 1.27.

Take A30U A124G: the self-cleavage is 0.84.

Regarding A31G C128U, the self-cleavage was 1.02.

A30U U45A: the self-cleavage was 1.14.

In the case of A31C U132C, the self-cleavage amounted to 2.33.

On to A30G A117U, for which the self-cleavage was 1.17.

As for A31C A138G, the self-cleavage was found to be 1.31.

On to U29C U108G, for which the self-cleavage turned out to be 1.2.

Consider U29G C71G, for which the self-cleavage was found to be 0.23.

For A31U U132C, the self-cleavage was determined as 1.39.

Regarding A30U A59G, the self-cleavage worked out at 0.22.

As to G32A A142G, the self-cleavage came to 1.22.

Regarding U29C U85G, the self-cleavage was determined as 0.28.

For the variant A30G A141C, the self-cleavage was 0.82.

Take A30G A141U: the self-cleavage was 1.06.

As to A31U C145A, the self-cleavage turned out to be 1.65.

In the case of A30U U109C, the self-cleavage is 1.33.

Take A31G A136U: the self-cleavage stood at 1.26.

In the case of A31G A136G, the self-cleavage was found to be 1.37.

For A30U U52C, the self-cleavage was 1.09.

As for A31U G36U, the self-cleavage worked out at 0.81.

Take A31U U112A: the self-cleavage stood at 1.8.

As for A30C A136U, the self-cleavage was found to be 1.19.

Regarding A31C A140G, the self-cleavage was determined as 1.18.

As to A30G U130C, the self-cleavage was 1.36.

As to A31C A69G, the self-cleavage turned out to be 0.33.

As for A31G U104C, the self-cleavage turned out to be 1.91.

For the variant G32A G75C, the self-cleavage is 0.65.

As for U29C U96A, the self-cleavage amounted to 0.15.

On to U29C U96C, for which the self-cleavage worked out at 0.24.

Consider A30U G89U, for which the self-cleavage was 0.03.

As for A31U G34A, the self-cleavage was 0.56.

A31U U100A: the self-cleavage is 0.67.

Turning to A31U U100C, the self-cleavage is 1.41.

Turning to A31U U100G, the self-cleavage came out at 1.23.

On to G32A A65U, for which the self-cleavage was 0.1.

With G32A A65G, the self-cleavage came out at 0.11.

Regarding A30G, the self-cleavage is 1.09.

For A30C, the self-cleavage amounted to 1.27.

Consider A30U, for which the self-cleavage came to 1.1.

A30G U100A: the self-cleavage was 1.59.

Regarding A30G U100C, the self-cleavage was 1.07.

Regarding A31C U143A, the self-cleavage was 1.01.

On to A31U C63G, for which the self-cleavage turned out to be 0.

In the case of A31U C61A, the self-cleavage worked out at 0.13.

In the case of A31U U102A, the self-cleavage is 1.91.

Consider A31U U102C, for which the self-cleavage was 1.05.

For A30C G36A, the self-cleavage turned out to be 1.09.

For the variant A31G A94G, the self-cleavage amounted to 0.94.

As to G32A G89U, the self-cleavage is 0.04.

Turning to A30U U85C, the self-cleavage was 0.1.

With A30C U130A, the self-cleavage was found to be 0.75.

For A30G A67U, the self-cleavage is 0.1.

In the case of A30G A67G, the self-cleavage is 0.51.

Take A31G C37A: the self-cleavage amounted to 1.32.

Take A31G C37U: the self-cleavage turned out to be 1.6.

As for A30G A57U, the self-cleavage is 0.27.

Turning to A30G A57C, the self-cleavage was determined as 0.

On to A31G G34A, for which the self-cleavage turned out to be 0.77.

A31U A136G: the self-cleavage was found to be 0.79.

In the case of A30G G48A, the self-cleavage stood at 0.5.

For U29C U39C, the self-cleavage turned out to be 1.74.

Turning to U29C U39G, the self-cleavage was determined as 0.51.

With A30U U115C, the self-cleavage turned out to be 1.16.

Turning to A31U A138G, the self-cleavage worked out at 1.26.

Turning to A31U U87C, the self-cleavage came out at 0.24.

Turning to U29C G125A, the self-cleavage is 0.94.

Regarding G32A A107U, the self-cleavage was 1.27.

As to G32A A107C, the self-cleavage came to 1.91.

Consider G32A U52A, for which the self-cleavage was found to be 1.28.

Consider A30G G49U, for which the self-cleavage is 0.89.

For A30G G36C, the self-cleavage was 1.25.

Regarding A31G A124G, the self-cleavage was 1.09.

Take A31U A77U: the self-cleavage is 0.96.

Regarding A30C U81C, the self-cleavage is 0.92.

Turning to A30G G126C, the self-cleavage worked out at 1.72.

As to A31G A77G, the self-cleavage stood at 2.49.

Consider A30U U81C, for which the self-cleavage came to 1.52.

As to A31G A43U, the self-cleavage worked out at 0.89.

The record behind these values is the RNAGym collection of RNA variant scans (doi:10.7554/elife.90254).
